Test results as given in article PMC6146392 (Metallomics : integrated biometal science, 2018).
Where two headings read alike, the source gives them in different places.

What was measured:
Test in all cases: ITC
[1] = molecular target: T1, H.s. GLRX5 lacking the first 31 amino acids (Δ1-31) (human, UniProt Q86SX6 32-157)
T1 sequence (looked up): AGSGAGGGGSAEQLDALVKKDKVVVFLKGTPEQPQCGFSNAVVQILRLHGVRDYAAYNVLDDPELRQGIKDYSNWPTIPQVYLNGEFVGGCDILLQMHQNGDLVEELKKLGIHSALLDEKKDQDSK

[2] = molecular target: S.c. Grx3 (residues 36-285, Trx-like and Grx-like domains) (S. cerevisiae)
[3] = molecular target: S.c. Grx3 (residues 36-285, Trx-like and Grx-like domains) (S. cerevisiae); remark: listed apart in the source

- Ka [1]: 120000 M⁻¹
- dH [1]: -0.518 ± 0.0342 kcal/mol
- stoichiometry N [1]: 1.02 ± 0.05
- Kd [2]: 6.7 µM
- stoichiometry N [2]: 0.94
- Ka [3]: 150000 M⁻¹
- dH [3]: -0.787 kcal/mol
- stoichiometry N [3]: 0.98
B1: human BOLA3 (residues 25-107, lacking the mitochondrial targeting sequence) (natural protein, UniProt Q53S33 25-107, looked up)
chain: MFATQTEGELRVTQILKEKFPRATAIKVTDISGGCGAMYEIKIESEEFKEKRTVQQHQMVNQALKEEIKEMHGLRIFTSVPKR
